B1: bacteriophage λ integrase (Int) (enzyme)
chain: MGRRRSHERRDLPPNLYIRNNGYYCYRDPRTGKEFGLGRDRRIAITEAIQANIELFSGHKHKPLTARINSDNSVTLHSWLDRYEKILASRGIKQKTLINYMSKIKAIRRGLPDAPLEDITTKEIAAMLNGYIDEGKAASAKLIRSTLSDAFREAIAEGHITTNHVAATRAAKSEVRRSRLTADEYLKIYQAAESSPCWLRLAMELAVVTGQRVGDLCEMKWSDIVDGYLYVEQSKTGVKIAIPTALHIDALGISMKETLDKCKEILGGETIIASTRREPLSSGTVSRYFMRARKASGLSFEGDPPTFHELRSLSARLYEKQISDKFAQHLLGHKSDTMASQYRDDRGREWDKIEIK
notes: Integrase (Int) of bacteriophage λ, tyrosine recombinase; The model holds the NTD (residues 1-55), the NTD-CB linker (56-74) and the CB and catalytic domains (75-356); The NTD of Int-C is not in the model; also called site-specific recombinase; Int-B
B2: bacteriophage λ Xis protein (natural protein, UniProt P03699 1-72, looked up)
chain: MYLTLQEWNARQRRPRSLETVRRWVRECRIFPPPVKDGREYLFHESAVKVDLNRPVTGGLLKRIRNGKKAKS
notes: Virally encoded accessory DNA-bending protein Xis of bacteriophage λ; The 18 C-terminal residues are missing from the model, as in the Xis-DNA crystal structures; also called Xis1.5

Assays:
[1] = biological target: the molecule itself; test: cryo-EM structure; excisive Holliday junction complex trapped by in vitro recombination of attL and attR (150 nM IHF, 350 nM Xis, 350 nM Int, 25 mM HEPES pH 7.5, room temperature); crosslinked with 0.0035% glutaraldehyde; purified on sucrose gradients; single particle map at about 11 Å; model built by fitting known crystal and NMR structures into the density
[2] = biological target: B1; test: as above; conditions: both partners purified

Row | Binder | stoichiometry N [1] | binding result [2]
1 | B1 | 4 | –
2 | B2 | – | binds

Reference: paper PMC4880445, “Structure of a Holliday junction complex reveals mechanisms governing a highly regulated DNA transaction” (eLife, 2016)
